The target of the experiment is pneumolysin (Streptococcus pneumoniae) (UniProt P0C2J9).

Sequence of pneumolysin (P0C2J9 whole entry): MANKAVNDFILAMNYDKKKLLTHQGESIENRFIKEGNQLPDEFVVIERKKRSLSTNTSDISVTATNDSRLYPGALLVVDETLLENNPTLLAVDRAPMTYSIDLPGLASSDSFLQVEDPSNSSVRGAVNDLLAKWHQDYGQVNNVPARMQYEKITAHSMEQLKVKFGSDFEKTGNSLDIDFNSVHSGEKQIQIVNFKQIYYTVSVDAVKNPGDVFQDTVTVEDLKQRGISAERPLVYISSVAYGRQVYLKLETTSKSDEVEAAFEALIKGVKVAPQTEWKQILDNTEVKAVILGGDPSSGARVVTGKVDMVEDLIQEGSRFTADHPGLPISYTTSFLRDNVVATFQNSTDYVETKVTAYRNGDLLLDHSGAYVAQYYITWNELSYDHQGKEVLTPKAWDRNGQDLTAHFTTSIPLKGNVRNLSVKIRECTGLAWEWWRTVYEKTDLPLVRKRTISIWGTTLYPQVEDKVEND

“pneumolysin (from UniProt P0C2J9 1-471) (natural protein)” registered a k0.5 of the reciprocal lag length before lysis of sheep erythrocytes against pneumolysin concentration (fit with Eq. 3), 30.0 °C of 143 nM; a k0.5 of the reciprocal lag length before lysis of sheep erythrocytes against pneumolysin concentration (fit with Eq. 3), 33.0 °C of 176 nM; a k0.5 of the reciprocal lag length before lysis of sheep erythrocytes against pneumolysin concentration (fit with Eq. 3), 35.0 °C of 243 nM; a k0.5 of the reciprocal lag length before lysis of sheep erythrocytes against pneumolysin concentration (fit with Eq. 3), 37.0 °C of 405 nM. Also, the k0.5 of the reciprocal lag length before lysis of sheep erythrocytes against pneumolysin concentration (fit with Eq. 3), 38.5 °C worked out at 266 nM.
